The data set in a line: amyloid nucleation score (Sup35N fusion, yeast selection) (log enrichment); library NNK2; higher = more nucleation; inactive = no reads after selection. The gist of the method: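 The nucleation score is the log enrichment of output over input reads, calculated with DiMSum and centred on the mode score of non-aggregating sequences. Sequences with under 100 input reads were excluded. Reads came from Illumina sequencing of plasmid inserts from psi-negative yeast expressing Sup35N fused to peptides of 20 random codons, induced 24 hours with 100 μM copper sulfate and grown 7 days at 30°C without adenine and uracil.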

± gives the uncertainty stated by the source.

In the case of KIVLGYCVLKITEQELMLWV, the amyloid nucleation score entry was “inactive”. The same measure for SKPWKYNRFYLESSEWSSFC: 1.47 ± 0.3; for FRMFNVGFPDRPIMFRVDRL: 0.41 ± 0.74; for LNPIFVWFHSC: 7.23 ± 0.077. The same measure for VWLRYYMCFNFVWSIVGVRI: 3.81 ± 0.052; for VFDIWFLGSDTSSCVNWTYR: 6.583 ± 0.048; for PGHSWMMSDDPDRYMNNLTV: -0.053 ± 0.79. The same measure for SHYPKGCHWGGLHSGDRKFP: 0.892 ± 0.45; for SLDECHLSRRTNS: 0.411 ± 0.34; for CDYYLFLCIYRSQNVGTEGG: 6.783 ± 0.063.

With SLMLQ, the amyloid nucleation score was found to be 0.706 ± 0.81. FYLFQWCK gave an amyloid nucleation score of -0.889 ± 1.1. In turn, INWLKYLAFLILLDMFNSFG came in with an amyloid nucleation score of 0.263 ± 0.64. With PLLFTWAVLINALWVKSTPG the figure was -0.19 ± 1.

QCVKLNTNVLCTVSDYNARG: the amyloid nucleation score was found to be 1.2 ± 0.11. On to LLCMVIMVGFYSRSAGNTDQ, for which the amyloid nucleation score was determined as 0.696 ± 0.6. VSCNSYMGVLMDDGRVETLE returned an amyloid nucleation score of 0.486 ± 0.2. For the substance GVLYLFTVTVMDKKFTM, the amyloid nucleation score was 3.5 ± 0.077.

YVYWWTYERMVSWSIYCVNT came in with an amyloid nucleation score of 2.96 ± 0.097. With TYFARCFDNWTVNWCVARVC the figure was 0.614 ± 0.57. The same measure for LAKADPWHLKMLFSAMLRQD: 0.332 ± 0.26. With SGLTSIWQPTRTRMMSPSRR the figure was 0.08 ± 0.79.

The substance FALREYGYLSSYYFCMGGPT came in with an amyloid nucleation score of 3.56 ± 0.094. In turn, SLTVFHLKYMSQNIKAE registered an amyloid nucleation score of -0.797 ± 1. The substance KLWTISVDHPGII gave an amyloid nucleation score of -1.45 ± 1.

As for SGNICIPFY, the amyloid nucleation score result was “inactive”. With WKSCWLGIWSEGIYILGEET the figure was -0.284 ± 1.1; with FIFRMHAFNGIRLWCV, 1.38 ± 0.22; with WLSTKWIFFISNVKFFLYLR, -0.06 ± 1.

As to CSPCFLSCGPYNNGPE, the amyloid nucleation score amounted to 7.537 ± 0.074.

Substance LFARWTFDNFSLRVVLQTRI gave an amyloid nucleation score of -0.861 ± 0.25. The same measure for SIQRTVS: 0.473 ± 0.2; for ILDFKWNYYG: 3.05 ± 0.11.

In turn, MFLYTVTNARFYEWW yielded an amyloid nucleation score of 0.102 ± 0.61. On to CECLRDESER, for which the amyloid nucleation score worked out at 2.1 ± 0.29.

In turn, CMSIHCVTTSRVLKFNSKWY showed an amyloid nucleation score of 3.11 ± 0.15. Regarding MFNFWWSFYALFKLSWRPGF, the amyloid nucleation score was -0.996 ± 0.49.

Consider RKVCFLAVKCGGFVCFIVRA, for which the amyloid nucleation score entry is “inactive”.

For the substance VLNSPVFFHSYRSMVSLM, the amyloid nucleation score was -0.117 ± 0.3. The same measure for LLPYSSHN: 4.901 ± 0.039; for NFNMYGVFCVY: “inactive”. With FSTCYPPSDWVSRMASETLN the figure was -0.096 ± 0.65; with LVYWRQYYCKGRVRLLC, “inactive”; with APSGRHFFTFTPC, 0.605 ± 0.36.

On to VSEQSMQCGVKFRHGTPSMV, for which the amyloid nucleation score was determined as 0.607 ± 0.38.

In turn, WDLLLCNTKFFEIRIKADTL yielded an amyloid nucleation score of 3.94 ± 0.094. ISRLWCHRHLCCPGWSMVRQ: the amyloid nucleation score was -0.063 ± 0.74. With PPVMFLRWCVQAGSPWTNHC the figure was -0.105 ± 1.1; with STSSNGSEYHCLSI, 1.05 ± 0.44.

LSLFISGDYWVIQGNIY: the amyloid nucleation score was determined as 3.65 ± 0.059. With SGSIVRGLCVVFSCVFKGSL the figure was -0.874 ± 0.56; with GQVLLFCMRTTYTMDEEFNS, 0.082 ± 1; with NRNQRSVDRCGFSWYGTQIG, 1.3 ± 0.32. With STSLVTIPCGGFGFKYSANP the figure was 0.171 ± 0.33; with NWPNPVSLMSRIDFRMV, -0.131 ± 0.31; with ASSRFDDVINDRIRILVCAV, -0.102 ± 0.49. With RCHRNFVSWVEDLGRRSIGV the figure was 4.53 ± 0.051; with SFHSCNVS, -0.363 ± 0.74. GRSFILTRLRFIFPVYTVC: the amyloid nucleation score result was “inactive”. With EAHILRLYMLSRLSGIVHMV the figure was 0.434 ± 0.56. The same measure for SCENTSSQELWYTCSIDLKL: 0.472 ± 0.66; for FRTASLHVCLFLSG: -0.316 ± 0.61. With ITSNSVHIGITNYYRRELDQ the figure was 5.32 ± 0.056; with CVILDWSVVCFMELVINSRS, 3.21 ± 0.065. In the case of NAICPIKVSGFGCLSKR, the amyloid nucleation score was 0.092 ± 1.1. With IYTRFQLFR the figure was 4.5 ± 0.069. SGYCQDCSSGPFESDGINIS came in with an amyloid nucleation score of -0.321 ± 1. The same measure for CYNLCCLPFCGVNLMFWLQV: 7.992 ± 0.033.

As for MFLSNDIAFVKNVLNRIRYL, the amyloid nucleation score is -0.642 ± 0.78. For AIRLLDVLRCRG, the amyloid nucleation score was determined as 3.88 ± 0.087. On to CFIFKWFYYCLSVSTIDMSV, for which the amyloid nucleation score was -2.48 ± 1.1. For QSVKLFNSPTSAELILGTKE, the amyloid nucleation score was -0.982 ± 0.78. With FSSFDIMRQLTMLNICLVSW the figure was 5.773 ± 0.047; with LGRCY, 2.72 ± 0.062. Consider ALFFRTKTKHWVSCRFLMS, for which the amyloid nucleation score was found to be 2.86 ± 0.078. For KKRLCDTSTIFQINNLHRMM, the amyloid nucleation score was -1.32 ± 0.76. The same measure for YGQLRHFVRTGLDGGTHRGL: -0.174 ± 0.76; for NLLLFYPAISVSCVNYTMRV: 7.127 ± 0.052. In the case of IESSEQSWT, the amyloid nucleation score is -0.75 ± 0.36. With SLAHQAFAEPSWTKVEE the figure was 0.278 ± 0.26. For the substance KYCMRDDSSSLMYLWGCTRG, the amyloid nucleation score was -0.168 ± 0.29. The same measure for SINTAVSCFMAGICNGHRSE: 8.246 ± 0.061. Take FHSRFSMRPDDLWSQNARVW: the amyloid nucleation score stood at 0.028 ± 0.79.

For GMVCVP, the amyloid nucleation score is 0.876 ± 0.25.

Take RRIINWPNSGIGIPRSKSMF: the amyloid nucleation score result was “inactive”. Consider NNSPVSPDGCLLGSSVQYWY, for which the amyloid nucleation score is -0.375 ± 1.1. With RLFYRYWCL the figure was -0.797 ± 0.35; with YHFTLGCNSEGCR, -0.668 ± 0.24; with NNYIVTW, 0.233 ± 0.74. For the substance ADLCHTGRGSMRPCETED, the amyloid nucleation score entry was “inactive”. The same measure for TSKRVFSRVESGTQVLGNEG: -0.053 ± 0.5; for RDVLTDNQNAIRLLRGVSAY: 0.298 ± 0.19; for MRSSFGK: -0.086 ± 0.5.

TYCILPLRVRMWTSTTLCQV came in with an amyloid nucleation score of 4.59 ± 0.055. On to PCVLKLRSSSKSISCSWGVS, for which the amyloid nucleation score stood at 3.85 ± 0.074. The same measure for RHQCIIWDIISLPGIWLCRR: 1.13 ± 0.23. With ALCKFRDFFVMYNTGWHTVQ the figure was -0.935 ± 1.1; with ALPKFSNNYLYEFLWFSRYL, -0.538 ± 0.76; with VRDIVYRYSGGRRS, “inactive”. The same measure for NILMY: -0.46 ± 1; for YRFRSLSM: -1.14 ± 0.4; for CLNRLFHTPGDGDNYCRAIL: 0.34 ± 0.5. Regarding SSRVDVVISHQREAIGSRQC, the amyloid nucleation score worked out at 5.11 ± 0.077.

As to DIVMCFLGRHHQSTEAGLSM, the amyloid nucleation score came to 4.49 ± 0.056. With LGLLFAINTVLSSQLR the figure was 7.703 ± 0.076. With DDRCATSNIHLLLHPLCTYL the figure was 0.754 ± 0.37; with YFIGGGLRVMSRWWMCALMD, 3.24 ± 0.086; with VYTTDLPFIYVLSVFMFIHG, -0.447 ± 0.27. The same measure for PVLCVYFSIYN: 8.151 ± 0.054. In turn, FVRQDYKRVRDLFPTLNFDK displayed an amyloid nucleation score of -0.949 ± 0.64. The same measure for GLGLICLQMGGFCMWRFRRM: 0.197 ± 0.24; for CISWL: “inactive”; for DNCLTGIEWI: -1.83 ± 1. As to VLTDSCKFYCELCQLNREVY, the amyloid nucleation score is 0.443 ± 0.36. With FMTGSFEENS the figure was -0.945 ± 1.1; with STNYQLSLFR, 3.96 ± 0.086.

With AVASVETDGSKIYMMDVLNY, the amyloid nucleation score was -1.16 ± 1.1.

Substance ARPIKFYKKLYFSCMIELLR had an amyloid nucleation score of -1.38 ± 0.54. With DVRPDLNDKSRTVDSDVLLC the figure was -0.846 ± 0.78; with FRALKMISDPSRHSVLL, -0.02 ± 0.34.

With GGNSQMFRLSLGDTKCSGSY, the amyloid nucleation score was -1.06 ± 1.1. With IDPLKGMLD the figure was -2 ± 0.78. In turn, IRWMTHWKV displayed an amyloid nucleation score of 0.834 ± 0.43. As to MPPRGKSWSVRTSLWKQIFM, the amyloid nucleation score turned out to be 3.24 ± 0.11. The same measure for NWIPYVWGWIALIVGSDF: -0.158 ± 0.55; for GGLELLLGKMNVNVAMLKSF: 1.09 ± 0.17; for RGLISSVFVVMFDACGVIRC: 5.605 ± 0.035.

As for YERVRRSVYSSMFFSLFNTR, the amyloid nucleation score is -0.357 ± 1.1. With FFIWLPYRSTTINRISPCWG the figure was -1.94 ± 0.54; with GLICRV, 0.518 ± 0.46.

Consider CVVTSVIENGFFLQFIMFYQ, for which the amyloid nucleation score entry is “inactive”. With RTWCPLG the figure was 0.486 ± 0.41. On to WLGYFK, for which the amyloid nucleation score entry is “inactive”. The same measure for FCRGIHVTSIITTIDWYYSL: 0.36 ± 0.62; for YYKFTVCWMYYLYQKSRTLL: -1.15 ± 0.78; for TQRVGGIRW: 0.105 ± 0.24.

SMGFSSVPHSYTCTVEQG: the amyloid nucleation score turned out to be 6.06 ± 0.07.

In the case of LLMVRVGRSQVRSNKNRH, the amyloid nucleation score was found to be 5.984 ± 0.054.

As for KNDISHS, the amyloid nucleation score entry is “inactive”.

The values are drawn from the supplement of paper PMC12042874.
